# Laboratory results reported in patent US20220098269A1 (IMMATICS BIOTECHNOLOGIES, published 2022).
# B1: VFDETKNLL (peptide)
# peptide: VFDETKNLL
# B2: GYIDDVTLI (peptide)
# peptide: GYIDDVTLI
# B3: QAIDLSLNF (peptide)
# peptide: QAIDLSLNF
# B4: VFHDHTYHL (peptide)
# peptide: VFHDHTYHL
# B5: IYPDASLLIQNI (peptide)
# peptide: IYPDASLLIQNI
# B6: FHYDDTAGYF (peptide)
# peptide: FHYDDTAGYF
# B7: KSYHDQTISF (peptide)
# peptide: KSYHDQTISF
# B8: YHDQTISF (peptide)
# peptide: YHDQTISF
# B9: YWDETLKEF (peptide)
# peptide: YWDETLKEF
# B10: FFTDKTLSF (peptide)
# peptide: FFTDKTLSF
# B11: VHDFTLPSW (peptide)
# peptide: VHDFTLPSW
# B12: FYDLSIQSF (peptide)
# peptide: FYDLSIQSF
# B13: QYQDTTVSF (peptide)
# peptide: QYQDTTVSF
# B14: TYLPTDASLSF (peptide)
# peptide: TYLPTDASLSF
# B15: IFDETGRF (peptide)
# peptide: IFDETGRF
# B16: SYDETKIKF (peptide)
# peptide: SYDETKIKF
# B17: NYLLYVSDF (peptide)
# peptide: NYLLYVSDF
# B18: FYDNSVIIF (peptide)
# peptide: FYDNSVIIF
# B19: IYNFRLWDF (peptide)
# peptide: IYNFRLWDF
# B20: FFQDSTFSF (peptide)
# peptide: FFQDSTFSF
# B21: KLTDNSNQF (peptide)
# peptide: KLTDNSNQF
# B22: IYLDRTLLTTI (peptide)
# peptide: IYLDRTLLTTI
# B23: YFVDVTTRI (peptide)
# peptide: YFVDVTTRI
# B24: VYTDISHHF (peptide)
# peptide: VYTDISHHF
# B25: IYQFARLDY (peptide)
# peptide: IYQFARLDY
# B26: WLDRSTILY (peptide)
# peptide: WLDRSTILY
# B27: HVSDVTVNY (peptide)
# peptide: HVSDVTVNY
# B28: PSDLSVFTSY (peptide)
# peptide: PSDLSVFTSY
# B29: ILFSDSTRLSF (peptide)
# peptide: ILFSDSTRLSF
# B30: ISDGMDSSAHY (peptide)
# peptide: ISDGMDSSAHY
# B31: RSIDVTGQGF (peptide)
# peptide: RSIDVTGQGF
# B32: LTNDQTLRL (peptide)
# peptide: LTNDQTLRL
# B33: GQYDDSLQAY (peptide)
# peptide: GQYDDSLQAY
# B34: LSDLSLADI (peptide)
# peptide: LSDLSLADI
# B35: ITDTSLNLF (peptide)
# peptide: ITDTSLNLF
# B36: VTRDDTASY (peptide)
# peptide: VTRDDTASY
# B37: GTDQTGKGLEY (peptide)
# peptide: GTDQTGKGLEY
# B38: FTDTSSYEY (peptide)
# peptide: FTDTSSYEY
# B39: MTDVDRDGTTAY (peptide)
# peptide: MTDVDRDGTTAY
# B40: RVDDITDQF (peptide)
# peptide: RVDDITDQF
# B41: HADLTTLTF (peptide)
# peptide: HADLTTLTF
# B42: VTDVTEEHY (peptide)
# peptide: VTDVTEEHY
# B43: YSIDVTNVM (peptide)
# peptide: YSIDVTNVM
# B44: RSLDCTVKTY (peptide)
# peptide: RSLDCTVKTY
# B45: LSDLTCNNY (peptide)
# peptide: LSDLTCNNY
# B46: HVDNSNLNY (peptide)
# peptide: HVDNSNLNY
# B47: ILPDITTTY (peptide)
# peptide: ILPDITTTY
# B48: PSDGSMHNY (peptide)
# peptide: PSDGSMHNY
# B49: LTEVEKDATALY (peptide)
# peptide: LTEVEKDATALY
# B50: VTETMGIDGSAY (peptide)
# peptide: VTETMGIDGSAY
# B51: ITDDTVQTY (peptide)
# peptide: ITDDTVQTY
# B52: EVQDHSTSSY (peptide)
# peptide: EVQDHSTSSY
# B53: YIDDVTLI (peptide)
# peptide: YIDDVTLI
# B54: VTQDDTGFY (peptide)
# peptide: VTQDDTGFY
# B55: HVKDATMGY (peptide)
# peptide: HVKDATMGY
# B56: NHITDTSLNLF (peptide)
# peptide: NHITDTSLNLF
# B57: TANYDTSHY (peptide)
# peptide: TANYDTSHY
# B58: EVEGVIDGTYDY (peptide)
# peptide: EVEGVIDGTYDY
# B59: QVDGSLLVI (peptide)
# peptide: QVDGSLLVI
# B60: WSDWSNPAY (peptide)
# peptide: WSDWSNPAY
# B61: ISDITEKNSGLY (peptide)
# peptide: ISDITEKNSGLY
# B62: GTDKQDSTLRY (peptide)
# peptide: GTDKQDSTLRY
# B63: TSDTSQYDTY (peptide)
# peptide: TSDTSQYDTY
# B64: FTDLITDESINY (peptide)
# peptide: FTDLITDESINY
# B65: TFVDASRTLY (peptide)
# peptide: TFVDASRTLY
# B66: GVDDTSLLY (peptide)
# peptide: GVDDTSLLY
# Target: T1, HLA-A*24:02 (human)
# T1 construct: Peptide-receptive MHC class I monomer after UV cleavage of a UV-sensitive ligand
# Assay: UV-ligand exchange, anti-b2m ELISA; peptide exchange yield grade
# Excerpt: (§1) Candidate peptides for T cell based therapies according to the present invention were further tested for their MHC binding capacity (affinity). The individual peptide-MHC complexes were produced by UV-ligand exchange, where a UV-sensitive peptide is cleaved upon UV-irradiation and exchanged with the peptide of interest as analyzed. Only peptide candidates that can effectively bind and stabilize the peptide-receptive MHC molecules prevent dissociation of the MHC complexes. To determine the yield of the exchange reaction, an ELISA was performed based on the detection of the light chain (β2m) of stabilized MHC complexes. The assay was performed as generally described in Rodenko et al. (Rodenko et al., 2006).
# (§2) 96 well MAXISorp plates (NUNC) were coated over night with 2 μg/ml streptavidin in PBS at room temperature, washed 4× and blocked for 1h at 37° C. in 2% BSA containing blocking buffer. Refolded HLA-A*02:01/MLA-001 monomers served as standards, covering the range of 15-500 ng/ml. Peptide-MHC monomers of the UV-exchange reaction were diluted 100-fold in blocking buffer. Samples were incubated for 1 h at 37° C., washed four times, incubated with 2 μg/ml HRP conjugated anti-β2m for 1h at 37° C., washed again and detected with TMB solution that is stopped with […]. Absorption was measured at 450 nm. Candidate peptides that show a high exchange yield (preferably higher than 50%, most preferred higher than 75%) are generally preferred for a generation and production of antibodies or fragments thereof, and/or T cell receptors or fragments thereof, as they show sufficient avidity to the MHC molecules and prevent dissociation of the MHC complexes.
row,Binder,peptide exchange yield [%]
1,B1,20 to 50
2,B2,50 to 75
3,B3,20 to 50
4,B4,≥ 75
5,B5,≥ 75
6,B6,10 to 20
7,B7,≥ 75
8,B8,10 to 20
9,B9,50 to 75
10,B10,≥ 75
11,B11,20 to 50
12,B12,≥ 75
13,B13,50 to 75
14,B14,≥ 75
15,B15,20 to 50
16,B16,10 to 20
17,B17,≥ 75
18,B18,20 to 50
19,B19,≥ 75
20,B20,≥ 75
21,B21,20 to 50
22,B22,≥ 75
23,B23,50 to 75
24,B24,≥ 75
25,B25,20 to 50

# Target: T2, HLA-A*01:01 (human)
# T2 construct: Peptide-receptive MHC class I monomer after UV cleavage of a UV-sensitive ligand; captured on streptavidin plates, detected with anti-b2m
# Assay: as above
# Excerpt: as §1, §2
row,Binder,peptide exchange yield [%]
1,B26,≥ 75
2,B27,20 to 50
3,B28,≥ 75
4,B29,50 to 75
5,B30,≥ 75
6,B31,20 to 50
7,B32,50 to 75
8,B33,20 to 50
9,B34,20 to 50
10,B35,≥ 75
11,B36,20 to 50
12,B37,50 to 75
13,B38,≥ 75
14,B39,≥ 75
15,B40,20 to 50
16,B41,20 to 50
17,B42,≥ 75
18,B43,50 to 75
19,B44,50 to 75
20,B45,≥ 75
21,B46,≥ 75

row,Binder,peptide exchange yield [%]
1,B47,20 to 50
2,B48,≥ 75
3,B49,≥ 75
4,B50,≥ 75
5,B51,≥ 75
6,B52,20 to 50
7,B53,20 to 50
8,B54,≥ 75
9,B55,50 to 75
10,B56,20 to 50
11,B57,20 to 50
12,B58,≥ 75
13,B59,20 to 50
14,B60,≥ 75
15,B61,≥ 75
16,B62,≥ 75
17,B63,50 to 75
18,B64,≥ 75
19,B65,≥ 75
20,B66,≥ 75
